The data set deals with the molecule itself. Put plainly: non-reducing PAGE of protein isolated from CHO cells.

The values that follow come from US20120208753A1 (published 2012).

B1: active domain of GDF-6 fused to a FLAG tag (SEQ ID NO: 25) (ligand)
chain: MDYKDDDDKENLYFQGTAFASRHGKRHGKKSRLRCSKKPLHVNFKELGWDDWIIAPLEYEAYHCEGVCDFPLRSHLEPTNHAIIQTLMNSMDPGSTPPSCCVPTKLTPISILYIDAGNNVVYKQYEDMVVESCGCR
notes: It was secreted by CHO cells; the Western blot was run under reducing conditions; also called active fragment of GDF-6; active fragment
For the protein B1, the binding result is “binds”.
